One block for each substance: values may come before it.
Legend:
Assay in all cases: SEC
[1] = target: human CYP11A1 (side-chain cleavage enzyme), N-terminally truncated and modified, C-terminally His-tagged (human) (UniProt P05108)
[2] = target: human CYP11B1 (11β-hydroxylase), N-terminally truncated and modified, C-terminally His-tagged (human) (UniProt P15538)
[3] = target: human CYP11B2 (aldosterone generating enzyme), N-terminally truncated and modified, C-terminally His-tagged (human) (UniProt P19099)

- stoichiometry N [1]: 4
Substance: human CYP11A1 (side-chain cleavage enzyme), N-terminally truncated and modified, C-terminally His-tagged (from UniProt P05108 40-521)

- stoichiometry N [2]: 4
Substance: human CYP11B1 (11β-hydroxylase), N-terminally truncated and modified, C-terminally His-tagged (from UniProt P15538 25-503) (enzyme)

- stoichiometry N [3]: 4
Substance: human CYP11B2 (aldosterone generating enzyme), N-terminally truncated and modified, C-terminally His-tagged (from UniProt P19099 25-503)

From paper PMC10787587
